Assay results from publication PMC5543128.

What was measured:
FAM-αC-conotoxin PrXA = FAM-αC-conotoxin PrXA (Conus parius, UniProt P0C8S5 52-83); assay: fluorescence anisotropy; conditions: tags: 5,6-carboxyfluorescein (FAM)
αC-conotoxin PrXA = αC-conotoxin PrXA (Conus parius, UniProt P0C8S5 52-83); assay: SPR; conditions: tags: none; label: 5' biotin
αC-conotoxin PrXA, sequence (P0C8S5 52-83): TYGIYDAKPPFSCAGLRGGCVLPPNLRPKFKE

FAM-αC-conotoxin PrXA, sequence (P0C8S5 52-83): as above

| Binder | Kd (FAM-αC-conotoxin PrXA) | Kd (αC-conotoxin PrXA) |
| --- | --- | --- |
| D3 (ssDNA) DNA: GCCTGTTGTGAGCCTCCTGTCGAAATCGGTCGTATAGGGTCGATTTGGTCGGCATTGAGCGTTTATTCTTGTCTCCC | 122 ± 25.3 nM |  |
| A5 (ssDNA) DNA: GCCTGTTGTGAGCCTCCTGTCGAAGTGCAGGTCTATACAGGACAGTCTTCTGATTTGAGCGTTTATTCTTGTCTCCC | 184 ± 69.7 nM |  |
| B4 (ssDNA) DNA: GCCTGTTGTGAGCCTCCTGTCGAATACGCACATACTGTGTACCTTGAATTTATATTGAGCGTTTATTCTTGTCTCCC | 120 ± 21.3 nM |  |
| 5'-biotin B4 (ssDNA) DNA: GCCTGTTGTGAGCCTCCTGTCGAATACGCACATACTGTGTACCTTGAATTTATATTGAGCGTTTATTCTTGTCTCCC |  | 329 nM |
| A4 (ssDNA) DNA: GCCTGTTGTGAGCCTCCTGTCGAAAATGCTGTTGTTTGAGTATCAATCAGACCGTTGAGCGTTTATTCTTGTCTCCC | 246 ± 66.6 nM |  |
| D7 (ssDNA) DNA: GCCTGTTGTGAGCCTCCTGTCGAATGCAGCATGGGGGATGTGCTCTTCCGCGTGTTGAGCGTTTATTCTTGTCTCCC | 238 ± 30.6 nM |  |
